Assay results from the supplement of paper PMC10065799, “High-throughput profiling of sequence recognition by tyrosine kinases and SH2 domains using bacterial peptide display” (eLife, 2023).

System: c-Src
Assay: phosphorylation enrichment, bacterial display (enrichment ratio); higher = better substrate or ligand; peptides without Tyr show the background
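For SH2 binding enrichment of the phosphorylated peptide, bacterial display in this document: peptide library displayed on the E. coli surface as eCPX fusions, selected cells deep-sequenced, score is each peptide's frequency after selection divided by its frequency in the input.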
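For phosphorylation enrichment, bacterial display in this document: 11-residue human phosphosite peptides and single-mutation variants displayed on the E. coli surface, counted by deep sequencing, each peptide's frequency after selection divided by its frequency in the unselected input library; frequency after pTyr selection over input frequency; kinase dosed for 20-30% of maximal phosphorylation in three min.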

Row | Sequence | phosphorylation enrichment
1 | PTKNDYWAMLA [WWOX_Y287] | 0.912
2 | FQNSLYAPDFS [FAM92A_Y226_R222Q_YF] | 2.18
3 | PVADPYDQSFE [MAPK14_Y323] | 0.982
4 | VNFDFYTVNLG [GFPT1_Y367_D366Y_YF] | 2.27
5 | KRGASYILKLA [SERPINB1_Y84] | 0.421
6 | SLTGAYASGIP [POM121C_Y378_T379A] | 0.482
7 | EEGNPYYSSTR [MCCC2_Y520_A524T] | 1.44
8 | DPLLTYRFPPN [LMNA_Y481_K486N] | 0.65
9 | IRRIAYEFVEM [ADA_Y84_K80R] | 0.458
10 | VDEERYDIEGK [TNNI3_Y112_A116G] | 0.509
11 | MHDSNCVSKGS [PDGFRA_Y849_Y849C] | 0.414
12 | RFLRGYHQDAY [HLA-A_Y137_R138H] | 0.935
13 | SIKDKYLTALF [KCNH2_Y611_V612L_YF] | 0.394
14 | AHPIIYDIIEA [PYKtide_D_2014] | 6.44
15 | AEEKEYHAEEG [EGFR_Y869_G873E] | 0.451
16 | VGGRIYIDDAL [PKLR_Y218_G222A] | 0.419
17 | VAFVYYKSIGP [ADGRL4_Y302] | 0.465

Row | Sequence | phosphorylation enrichment
18 | FTNRNYDLDYD [MYC_Y12] | 0.586
19 | DVYVSYDYGKS [SORL1_Y139] | 5.25
20 | ICGVSYDEYRY [CFTR_Y512_F508C] | 1.11
21 | LLREWYVQDPY [SIX3_Y225_L226V] | 0.641
22 | KVKPIYLHTQG [AR_Y916_F917L] | 0.402
23 | YVKEPYIQSRF [HIPK4_Y175] | 0.329
24 | SGSIHYSCVPR [GLB1_Y57_R59C] | 0.526
25 | ADMETYLLEKS [MYH7_Y266_I263M] | 0.869
26 | ISTAGYSIPEL [EDAR_Y406] | 0.457
27 | FEEDSYVKRSQ [RET_Y905_YF] | 0.47
28 | TGDFGYRAPGF [TNS2_Y668_YF] | 0.593
29 | DAAEDYAEGVC [DHODH_Y194_R199C] | 0.559
30 | TTKAKYKTPTF [PLD2_Y573_YF] | 0.39
31 | TSIGNYYKPWF [DHCR24_Y299_N294T] | 0.707
32 | HPAGNYSLSSV [ARFGAP3_Y473_Q468H] | 0.425
33 | NARGLYFKLHN [GATA2_Y376_C373R_YF] | 0.542

Molecular target: Grb2 SH2 (UniProt P62993)
Sequence (P62993 whole entry, looked up): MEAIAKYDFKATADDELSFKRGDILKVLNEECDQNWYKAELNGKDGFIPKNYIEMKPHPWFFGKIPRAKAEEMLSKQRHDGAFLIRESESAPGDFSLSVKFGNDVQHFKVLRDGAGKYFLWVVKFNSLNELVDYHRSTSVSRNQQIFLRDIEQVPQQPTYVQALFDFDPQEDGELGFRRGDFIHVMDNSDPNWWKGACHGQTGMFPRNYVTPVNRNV
Assay: SH2 binding enrichment of the phosphorylated peptide, bacterial display (enrichment ratio); higher = better substrate or ligand; peptides without Tyr show the background

Row | Sequence | SH2 binding enrichment
34 | PTKNDYWAMLA [WWOX_Y287] | 1.07
35 | FQNSLYAPDFS [FAM92A_Y226_R222Q_YF] | 0.891
36 | PVADPYDQSFE [MAPK14_Y323] | 0.927
37 | VNFDFYTVNLG [GFPT1_Y367_D366Y_YF] | 1.03
38 | KRGASYILKLA [SERPINB1_Y84] | 1.64
39 | SLTGAYASGIP [POM121C_Y378_T379A] | 0.732
40 | EEGNPYYSSTR [MCCC2_Y520_A524T] | 0.82
41 | DPLLTYRFPPN [LMNA_Y481_K486N] | 0.747
42 | IRRIAYEFVEM [ADA_Y84_K80R] | 0.542
43 | VDEERYDIEGK [TNNI3_Y112_A116G] | 1.02
44 | MHDSNCVSKGS [PDGFRA_Y849_Y849C] | 0.86
45 | RFLRGYHQDAY [HLA-A_Y137_R138H] | 0.857
46 | SIKDKYLTALF [KCNH2_Y611_V612L_YF] | 1.07
47 | AHPIIYDIIEA [PYKtide_D_2014] | 0.819
48 | AEEKEYHAEEG [EGFR_Y869_G873E] | 0.994
49 | VGGRIYIDDAL [PKLR_Y218_G222A] | 0.694
50 | VAFVYYKSIGP [ADGRL4_Y302] | 0.838

Row | Sequence | SH2 binding enrichment
51 | FTNRNYDLDYD [MYC_Y12] | 0.799
52 | DVYVSYDYGKS [SORL1_Y139] | 0.741
53 | ICGVSYDEYRY [CFTR_Y512_F508C] | 0.751
54 | LLREWYVQDPY [SIX3_Y225_L226V] | 1.05
55 | KVKPIYLHTQG [AR_Y916_F917L] | 1.71
56 | YVKEPYIQSRF [HIPK4_Y175] | 1.11
57 | SGSIHYSCVPR [GLB1_Y57_R59C] | 0.734
58 | ADMETYLLEKS [MYH7_Y266_I263M] | 0.67
59 | ISTAGYSIPEL [EDAR_Y406] | 0.796
60 | FEEDSYVKRSQ [RET_Y905_YF] | 0.799
61 | TGDFGYRAPGF [TNS2_Y668_YF] | 0.965
62 | DAAEDYAEGVC [DHODH_Y194_R199C] | 0.816
63 | TTKAKYKTPTF [PLD2_Y573_YF] | 0.778
64 | TSIGNYYKPWF [DHCR24_Y299_N294T] | 0.844
65 | HPAGNYSLSSV [ARFGAP3_Y473_Q468H] | 0.804
66 | NARGLYFKLHN [GATA2_Y376_C373R_YF] | 0.988

Molecular target: SHP2-C SH2
Assay: as above

Row | Sequence | SH2 binding enrichment
67 | PTKNDYWAMLA [WWOX_Y287] | 0.617
68 | FQNSLYAPDFS [FAM92A_Y226_R222Q_YF] | 0.614
69 | PVADPYDQSFE [MAPK14_Y323] | 0.797
70 | VNFDFYTVNLG [GFPT1_Y367_D366Y_YF] | 0.98
71 | KRGASYILKLA [SERPINB1_Y84] | 1.5
72 | SLTGAYASGIP [POM121C_Y378_T379A] | 0.602
73 | EEGNPYYSSTR [MCCC2_Y520_A524T] | 1.15
74 | DPLLTYRFPPN [LMNA_Y481_K486N] | 0.66
75 | IRRIAYEFVEM [ADA_Y84_K80R] | 0.435
76 | VDEERYDIEGK [TNNI3_Y112_A116G] | 0.98
77 | MHDSNCVSKGS [PDGFRA_Y849_Y849C] | 0.609
78 | RFLRGYHQDAY [HLA-A_Y137_R138H] | 0.497
79 | SIKDKYLTALF [KCNH2_Y611_V612L_YF] | 0.778
80 | AHPIIYDIIEA [PYKtide_D_2014] | 0.483
81 | AEEKEYHAEEG [EGFR_Y869_G873E] | 0.746
82 | VGGRIYIDDAL [PKLR_Y218_G222A] | 0.772
83 | VAFVYYKSIGP [ADGRL4_Y302] | 0.75

Row | Sequence | SH2 binding enrichment
84 | FTNRNYDLDYD [MYC_Y12] | 0.517
85 | DVYVSYDYGKS [SORL1_Y139] | 1
86 | ICGVSYDEYRY [CFTR_Y512_F508C] | 0.681
87 | LLREWYVQDPY [SIX3_Y225_L226V] | 0.856
88 | KVKPIYLHTQG [AR_Y916_F917L] | 1.84
89 | YVKEPYIQSRF [HIPK4_Y175] | 0.721
90 | SGSIHYSCVPR [GLB1_Y57_R59C] | 0.747
91 | ADMETYLLEKS [MYH7_Y266_I263M] | 0.564
92 | ISTAGYSIPEL [EDAR_Y406] | 0.893
93 | FEEDSYVKRSQ [RET_Y905_YF] | 0.858
94 | TGDFGYRAPGF [TNS2_Y668_YF] | 0.726
95 | DAAEDYAEGVC [DHODH_Y194_R199C] | 0.598
96 | TTKAKYKTPTF [PLD2_Y573_YF] | 0.693
97 | TSIGNYYKPWF [DHCR24_Y299_N294T] | 2.71
98 | HPAGNYSLSSV [ARFGAP3_Y473_Q468H] | 0.79
99 | NARGLYFKLHN [GATA2_Y376_C373R_YF] | 0.88

Molecular target: c-Src SH2
Assay: as above

Row | Sequence | SH2 binding enrichment
100 | PTKNDYWAMLA [WWOX_Y287] | 0.721
101 | FQNSLYAPDFS [FAM92A_Y226_R222Q_YF] | 0.591
102 | PVADPYDQSFE [MAPK14_Y323] | 0.971
103 | VNFDFYTVNLG [GFPT1_Y367_D366Y_YF] | 0.632
104 | KRGASYILKLA [SERPINB1_Y84] | 1.24
105 | SLTGAYASGIP [POM121C_Y378_T379A] | 0.533
106 | EEGNPYYSSTR [MCCC2_Y520_A524T] | 1.22
107 | DPLLTYRFPPN [LMNA_Y481_K486N] | 0.605
108 | IRRIAYEFVEM [ADA_Y84_K80R] | 1.15
109 | VDEERYDIEGK [TNNI3_Y112_A116G] | 0.683
110 | MHDSNCVSKGS [PDGFRA_Y849_Y849C] | 0.572
111 | RFLRGYHQDAY [HLA-A_Y137_R138H] | 0.632
112 | SIKDKYLTALF [KCNH2_Y611_V612L_YF] | 0.674
113 | AHPIIYDIIEA [PYKtide_D_2014] | 1.25
114 | AEEKEYHAEEG [EGFR_Y869_G873E] | 0.552
115 | VGGRIYIDDAL [PKLR_Y218_G222A] | 0.415
116 | VAFVYYKSIGP [ADGRL4_Y302] | 0.574

Row | Sequence | SH2 binding enrichment
117 | FTNRNYDLDYD [MYC_Y12] | 3.05
118 | DVYVSYDYGKS [SORL1_Y139] | 0.924
119 | ICGVSYDEYRY [CFTR_Y512_F508C] | 1.77
120 | LLREWYVQDPY [SIX3_Y225_L226V] | 1.36
121 | KVKPIYLHTQG [AR_Y916_F917L] | 1.65
122 | YVKEPYIQSRF [HIPK4_Y175] | 0.769
123 | SGSIHYSCVPR [GLB1_Y57_R59C] | 0.569
124 | ADMETYLLEKS [MYH7_Y266_I263M] | 0.523
125 | ISTAGYSIPEL [EDAR_Y406] | 7.33
126 | FEEDSYVKRSQ [RET_Y905_YF] | 0.603
127 | TGDFGYRAPGF [TNS2_Y668_YF] | 0.463
128 | DAAEDYAEGVC [DHODH_Y194_R199C] | 0.609
129 | TTKAKYKTPTF [PLD2_Y573_YF] | 0.509
130 | TSIGNYYKPWF [DHCR24_Y299_N294T] | 1.27
131 | HPAGNYSLSSV [ARFGAP3_Y473_Q468H] | 0.603
132 | NARGLYFKLHN [GATA2_Y376_C373R_YF] | 0.624
